In the supplement of paper PMC7125110:
± gives the standard error. Fewer inactive variants are shown than the library holds.

B1: glmS ribozyme (parent)
chain: AUAAAAGCGCCAGAACUACAGAAAUGUAGUUGACGAGGAGGAGGUUUAUCGAAUUUUCGGCGGAUGCCUCCAAA

Key:
Settings in all cases: with glucosamine-6-phosphate
glucosamine-6-phosphate [1] = variants of: B1; experiment: self-cleavage kobs at 40 uM GlcN6P; higher = faster cleavage; RNA array
Summary of the method: (§1)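 Barcoded ribozyme variants, transcribed in situ by E. coli RNA polymerase on sequenced MiSeq chips, were followed via a hybridised Cy3 probe at 37 °C. Glucosamine-6-phosphate ranged from 40 μM to 10 mM in HEPES/KCl/Mg(OAc)2 buffer. kobs came from decay fits to per-tile medians, and kcat and KM from weighted Michaelis–Menten fits.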

glucosamine-6-phosphate [2] = variants of: B1; experiment: self-cleavage kobs at 160 uM GlcN6P; higher = faster cleavage; RNA array
Summary of the method: as §1

glucosamine-6-phosphate [3] = variants of: B1; experiment: self-cleavage kobs at 640 uM GlcN6P; higher = faster cleavage; RNA array
Summary of the method: as §1

glucosamine-6-phosphate [4] = variants of: B1; experiment: self-cleavage kobs at 2500 uM GlcN6P; higher = faster cleavage; RNA array
Summary of the method: as §1

glucosamine-6-phosphate [5] = variants of: B1; experiment: self-cleavage kobs at 10000 uM GlcN6P; higher = faster cleavage; RNA array
Summary of the method: as §1

Variant | self-cleavage kobs at 40 uM GlcN6P (glucosamine-6-phosphate [1]) [s⁻¹] | self-cleavage kobs at 160 uM GlcN6P (glucosamine-6-phosphate [2]) [s⁻¹] | self-cleavage kobs at 640 uM GlcN6P (glucosamine-6-phosphate [3]) [s⁻¹] | self-cleavage kobs at 2500 uM GlcN6P (glucosamine-6-phosphate [4]) [s⁻¹] | self-cleavage kobs at 10000 uM GlcN6P (glucosamine-6-phosphate [5]) [s⁻¹]
AUAAAAGCGCCAGAACUACAGAAAUGUAGUUGACGAGGAGGAGGUUUAUGGAAUUUUCGGCGGAAGCCUCCAAA [C50G U65A] | 6.61e-05 ± 1.9e-05 | 6.9e-05 ± 3e-05 | 0.00136 ± 0.00038 | 0.000972 ± 0.00037 | –
AUAAAAGCGCCAGAACUACAGAAAUGUAGUUGACGAGGAGGAGGUUUAUGGAAUUUUCGGCGGAUGCAUCCAAA [C50G C68A] | 7.16e-05 ± 9.2e-06 | 0.000228 ± 3.1e-05 | 0.000137 ± 2.4e-05 | 0.000116 ± 2.1e-05 | 7.83e-05 ± 8.2e-06
AUAAAAGCGCCAGAACUACAGAAAUGUAGUUGACGAGGAGGAGGUUUAUCACAUUUUCGGCGGAUGCCUCCAAA [G51A A52C] | < 1e-05 | < 1e-05 | – | – | < 1e-05
AUAAAAGCGCCAGAACUACAGAAAUGUAGUUGACGAGGAGGAGGUUUAUUAAAUUUUCGGCGGAUGCCUCCAAA [C50U G51A] | < 1e-05 | – | < 1e-05 | < 1e-05 | < 1e-05
AUAAAAGCGCCAGAACUACAGAAAUGUAGUUGACGAGGAGGAGGUUUAUGGAAUUUUCGGCGAAUGCCUGCAAA [C50G G63A C70G] | 0.000105 ± 2.6e-05 | – | 0.000198 ± 4.3e-05 | 9.35e-05 ± 3e-05 | 8.99e-05 ± 1.5e-05
AUAAAAGCGCCAGAACUACAGAAAUGUAGUUGACGAGGAGGAGGUUUAUUGUAUUUUCGGCGGAUGCCUCCAAA [C50U A52U] | < 1e-05 | < 1e-05 | < 1e-05 | < 1e-05 | < 1e-05
AUAAAAGCGCCAGAACUACAGAAAUGUAGUUGACGAGGAGGAGGUUUAUGGAAUUGUCGGAGGAUGCCUCCAAA [C50G U56G C61A] | 8.29e-05 ± 2e-05 | – | 0.000426 ± 0.00014 | 0.00021 ± 4.8e-05 | 6.89e-05 ± 1.6e-05
AUAAAAGCGCCAGAACUACAGAAAUGUAGUUGACGAGGAGGAGGUUUAUGGAAUUUUCGGCUGAUGCGUCCAAA [C50G G62U C68G] | 0.000123 ± 3.2e-05 | – | – | – | 9.97e-05 ± 2.5e-05
AUAAAAGCGCCAGAACUACAGAAAUGUAGUUGACGAGGAGGAGGUUUAUGGAAUUUUCGGCGGAUUACUCCAAA [C50G G66U C67A] | 0.000105 ± 1.9e-05 | – | – | 4.67e-05 ± 1.7e-05 | 0.000166 ± 2.7e-05
AUAAAAGCGCCAGAACUACAGAAAUGUAGUUGACGAGGAGGAGGUUUAUUGAAUUUUCGGCGGUUGCCUCCAAA [C50U A64U] | < 1e-05 | < 1e-05 | – | – | < 1e-05
